In patent publication US20120213799A1 (published 2012) one finds Kd data, which are given here for twelve molecules.

Substitutions are numbered along the chain they refer to.

Holding throughout (test): BIACORE
For assay [1], the target named is T1, soluble hFKN-SEAP (extracellular region of human fractalkine conjugated to secreted alkaline phosphatase) (UniProt P78423 25-341).
T1 chain: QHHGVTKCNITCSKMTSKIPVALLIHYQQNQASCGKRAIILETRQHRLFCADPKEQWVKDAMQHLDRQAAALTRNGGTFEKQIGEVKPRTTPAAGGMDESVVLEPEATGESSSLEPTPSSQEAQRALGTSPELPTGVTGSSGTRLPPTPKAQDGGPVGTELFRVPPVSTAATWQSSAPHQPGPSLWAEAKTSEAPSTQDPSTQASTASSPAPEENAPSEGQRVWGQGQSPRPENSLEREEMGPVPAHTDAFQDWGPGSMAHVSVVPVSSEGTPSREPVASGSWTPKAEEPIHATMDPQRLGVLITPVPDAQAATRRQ

The target of another assay is cynomolgus FKN-SEAP (human;).
For assay [2], the target named is T2, recombinant human FKN (R&D Systems, Catalog No. 362-CX/CF) (UniProt P78423 25-100).
T2 chain: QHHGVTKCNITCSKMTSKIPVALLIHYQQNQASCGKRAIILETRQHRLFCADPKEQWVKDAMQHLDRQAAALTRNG

B1: humanized anti-hFKN mAb H3L2-IgG2 (antibody, V domains shown)
VH: QVQLVQSGAEVKKPGASVKVSCKASGYTFTNYYIHWVKQAPGQGLEWIGWIYPGDGSPKFNERFKGRTTLTADKSTNTAYMLLSSLRSDDTAVYFCATGPTDGDYFDYWGQGTTVTVSS
VL: DIQMTQSPSSLSASVGDRVTITCRASGNIHNFLAWYQQKPGKAPKFLVYNEKTLADGVPSRFSGSGSGTQYTLTISSLQPEDFATYFCQQFWSTPYTFGGGTKVEIK
In turn, B1 returned a Kd in assay [1] of 8.84 pM.

B2: H3L2 (antibody, V domains shown)
VH: B1 VH
VL: B1 VL
In the assay with cynomolgus FKN-SEAP, B2 returned a Kd of 9.62 pM.

B3: H3L4 (antibody, V domains shown)
VH: B1 VH
VL: B1 VL with F46L, V48I, Q70D
For B3, the Kd with cynomolgus FKN-SEAP worked out at 12 pM.

B4: H3-2L4 (antibody, V domains shown)
VH: B1 VH with D89E
VL: B1 VL with F46L, V48I, Q70D
For the molecule B4, the dissociation constant (Kd) with cynomolgus FKN-SEAP turned out to be 7.71 pM.

B5: humanized anti-hFKN mAb H3-L4-IgG2 (antibody, V domains shown)
VH: B1 VH
VL: B1 VL with F46L, V48I, Q70D
On to B5, for which, in assay [1], the Kd came out at 6.43 pM.

B6: H3-2L2 (antibody, V domains shown)
VH: B1 VH with D89E
VL: B1 VL
The molecule B6 came in with a Kd with cynomolgus FKN-SEAP of 6.75 pM.

B7: humanized anti-hFKN mAb H3-2L4-IgG2 (antibody, V domains shown)
VH: B1 VH with D89E
VL: B1 VL with F46L, V48I, Q70D
Take B7: the affinity in assay [1], expressed as Kd, was 5.34 pM.

B8: HK2L4 (antibody, V domains shown)
VH: B1 VH with K38R, L70M, K74T, N77S, L82E, D89E, T98R
VL: B1 VL with F46L, V48I, Q70D
Take B8: binding with cynomolgus FKN-SEAP was characterised by a dissociation constant (Kd) of 26 pM.

B9: humanized anti-hFKN mAb H3-2L2-IgG2 (antibody, V domains shown)
VH: B1 VH with D89E
VL: B1 VL
B9 showed a Kd in assay [1] of 5.92 pM.

B10: mouse anti-hFKN mAb clone 3A5-2 (antibody, V domains shown)
VH: QVQLQQSGPELVKPGASVKMSCKASGYTFTNYYIHWVKQRPGQGLEWIGWIYPGDGSPKFNERFKGKTTLTADKSSNTAYMLLSSLTSEDSAIYFCATGPTDGDYFDYWGQGTTLTVSS
VL: DIQMTQSPASLSASVGETVTITCRASGNIHNFLAWYQQKQGKSPQFLVYNEKTLADGVPSRFSGSGSGTQYSLKINSLQPEDFGIYFCQQFWSTPYTFGGGTKLEIK
In the case of B10, the Kd in assay [2] was determined as 600 pM.

B11: chimeric (antibody, V domains shown)
VH: B10 VH
VL: B10 VL
Molecule B11 showed a Kd with cynomolgus FKN-SEAP of 6.62 pM.

B12: mouse-human chimeric 3A5-2 mAb (antibody, V domains shown)
VH: B10 VH
VL: B10 VL
For B12, the Kd in assay [1] amounted to 7.13 pM.
